The text below walks through data of US20200377573.

Sequence of Human plasma kallikrein (chain, as listed by the source): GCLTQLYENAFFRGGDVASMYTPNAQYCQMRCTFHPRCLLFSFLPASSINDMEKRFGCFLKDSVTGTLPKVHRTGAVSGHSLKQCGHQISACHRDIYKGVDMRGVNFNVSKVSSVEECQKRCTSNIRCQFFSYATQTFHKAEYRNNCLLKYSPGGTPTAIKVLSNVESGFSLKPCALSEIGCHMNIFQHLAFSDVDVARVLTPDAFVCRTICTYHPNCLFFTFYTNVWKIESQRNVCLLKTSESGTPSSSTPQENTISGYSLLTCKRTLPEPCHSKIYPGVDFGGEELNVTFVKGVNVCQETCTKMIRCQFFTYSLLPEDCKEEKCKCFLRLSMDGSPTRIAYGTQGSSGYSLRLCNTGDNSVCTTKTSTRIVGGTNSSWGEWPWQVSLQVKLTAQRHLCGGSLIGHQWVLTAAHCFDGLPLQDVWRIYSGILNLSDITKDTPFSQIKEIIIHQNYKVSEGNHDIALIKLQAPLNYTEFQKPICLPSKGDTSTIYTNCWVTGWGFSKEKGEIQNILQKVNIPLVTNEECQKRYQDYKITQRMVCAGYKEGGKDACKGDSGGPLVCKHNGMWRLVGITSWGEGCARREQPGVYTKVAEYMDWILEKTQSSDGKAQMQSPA

The test system of this series is HTRA1-inhibiting peptides (Example 3-2 and 3-3, members not named).
Consider Bovine α-chymotrypsin, for which the “protease activity (decomposition of a peptide substrate)” value (“protease activity” for short) is reported as “did not suppress the protease activity of any of the proteases at a final inhibitor concentration of 1 micro M”.

Turning to Human plasma kallikrein, the “protease activity” value is on record as “did not suppress the protease activity of any of the proteases at a final inhibitor concentration of 1 micro M”. Turning to Human protein C, the “protease activity” value is given as “did not suppress the protease activity of any of the proteases at a final inhibitor concentration of 1 micro M”.

For Human thrombin, the “protease activity” value was “did not suppress the protease activity of any of the proteases at a final inhibitor concentration of 1 micro M”. In the case of Human tryptase, the “protease activity” value was “did not suppress the protease activity of any of the proteases at a final inhibitor concentration of 1 micro M”. As to Human uPA, the “protease activity” value is reported as “did not suppress the protease activity of any of the proteases at a final inhibitor concentration of 1 micro M”.
